The experiment concerns the target T1, human 5LOX (Homo sapiens, UniProt P09917).
T1 construct: purchased Cayman Chemical
T1 sequence (P09917 1-674): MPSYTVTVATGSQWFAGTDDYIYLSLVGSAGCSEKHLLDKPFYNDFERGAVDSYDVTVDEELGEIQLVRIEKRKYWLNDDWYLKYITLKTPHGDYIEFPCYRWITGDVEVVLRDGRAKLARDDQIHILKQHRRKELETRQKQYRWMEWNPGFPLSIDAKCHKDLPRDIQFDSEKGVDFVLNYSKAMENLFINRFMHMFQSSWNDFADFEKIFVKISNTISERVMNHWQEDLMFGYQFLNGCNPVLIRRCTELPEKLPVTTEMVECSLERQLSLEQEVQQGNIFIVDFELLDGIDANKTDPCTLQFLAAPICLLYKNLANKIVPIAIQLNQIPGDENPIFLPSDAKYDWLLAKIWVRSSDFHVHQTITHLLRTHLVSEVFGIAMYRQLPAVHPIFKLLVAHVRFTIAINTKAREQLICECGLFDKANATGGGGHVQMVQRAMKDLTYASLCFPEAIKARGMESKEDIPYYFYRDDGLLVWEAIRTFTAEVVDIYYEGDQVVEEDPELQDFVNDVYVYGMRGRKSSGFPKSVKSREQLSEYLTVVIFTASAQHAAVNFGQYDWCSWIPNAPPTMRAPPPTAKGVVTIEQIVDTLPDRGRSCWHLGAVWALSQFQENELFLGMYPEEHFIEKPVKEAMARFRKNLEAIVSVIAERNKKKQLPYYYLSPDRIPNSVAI
Nature of the experiment: Microtiter plate binding of SOD1 to immobilized 5LOX. Particulars: Scatchard analysis, estimate. How it is done: In order to circumvent these limitations of the BIAcore technique, a conceptually different strategy was employed to assess SOD1 binding to immobilized 5LOX. Standard 96 well polypropylene microtiter plates were coated with 5LOX by overnight incubation with the protein, which allows adsorption of the 5LOX through mostly hydrophobic interactions with the plate surface. As a control, half of each microplate was coated with BSA. The entire plate was then blocked with BSA, and subsequently incubated for 1 H with various concentrations of SOD1 dissolved in physiologic saline. Binding of SOD1 to the 5LOX-coated (or BSA-coated) microplate wells was quantified using alkaline phosphatase-conjugated anti-SOD1 polyclonal IgG, and p-nitrophenol as the chromophore. FIG. 15 illustrates preliminary binding data obtained from this experiment. SOD1 bound strongly to 5LOX-coated microplates but not to BSA-coated surfaces. […] Experiments may also be conducted to assess differences in 5LOX binding to wild-type versus mutant SOD1.

Broadly, the Kd is the equilibrium constant for the complex coming apart. For the substance “SOD1: Cu, Zn-superoxide dismutase, binding partner of 5LOX”, the Kd is 1400 nM.

Source of the values: patent publication US20040014721A1, “Method for using tethered bis(polyhydroxyphenyls) and O-alkyl derivatives thereof in treating inflammatory conditions of the central nervous system” (Oklahoma Medical Research Foundation, priority 2002, published 2004).
